Experiment [1] has as its target human TrkC (full-length TrkC receptor) (human) (UniProt Q16288). In words: flow cytometry on HEK293 cells stably expressing TrkC-FL, background controls. On the technique in general: In flow cytometry, cells or beads pass a laser one at a time.
Experiment [2] shares this target. The experiment can be described thus: cell-based or functional assay.
The target of experiment [3] is rat TrkC (on rat spiral ganglion neurons) (rat) (UniProt Q03351). The experiment can be described thus: cell-based or functional assay.
Chain of UniProt Q03351 (Q03351 32-864): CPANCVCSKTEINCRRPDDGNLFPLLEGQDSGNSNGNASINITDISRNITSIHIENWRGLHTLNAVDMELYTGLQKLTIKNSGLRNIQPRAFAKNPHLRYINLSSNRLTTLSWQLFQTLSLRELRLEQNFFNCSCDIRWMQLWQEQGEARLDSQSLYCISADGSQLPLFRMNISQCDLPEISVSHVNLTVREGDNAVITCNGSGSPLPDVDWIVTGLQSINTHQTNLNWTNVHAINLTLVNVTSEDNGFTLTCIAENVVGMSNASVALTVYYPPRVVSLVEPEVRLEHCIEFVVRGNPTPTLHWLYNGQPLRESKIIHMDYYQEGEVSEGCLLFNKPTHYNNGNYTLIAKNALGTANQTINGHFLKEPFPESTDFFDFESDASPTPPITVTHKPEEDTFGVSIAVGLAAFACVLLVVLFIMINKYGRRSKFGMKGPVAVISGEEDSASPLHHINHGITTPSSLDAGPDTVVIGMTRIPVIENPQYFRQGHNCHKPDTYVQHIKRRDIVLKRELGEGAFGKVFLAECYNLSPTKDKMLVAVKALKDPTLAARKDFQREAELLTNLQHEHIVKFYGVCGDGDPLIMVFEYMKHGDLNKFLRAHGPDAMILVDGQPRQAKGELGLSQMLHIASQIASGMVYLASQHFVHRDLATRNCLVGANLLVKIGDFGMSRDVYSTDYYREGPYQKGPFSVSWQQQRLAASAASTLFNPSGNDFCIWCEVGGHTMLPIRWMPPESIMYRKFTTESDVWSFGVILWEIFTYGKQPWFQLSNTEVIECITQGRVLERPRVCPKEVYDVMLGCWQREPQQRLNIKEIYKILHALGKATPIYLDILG
Experiment [4] deals with rat TrkB (on rat spiral ganglion neurons) (rat) (UniProt Q63604). The experiment can be described thus: cell-based or functional assay.
Chain of UniProt Q63604 (Q63604 32-821): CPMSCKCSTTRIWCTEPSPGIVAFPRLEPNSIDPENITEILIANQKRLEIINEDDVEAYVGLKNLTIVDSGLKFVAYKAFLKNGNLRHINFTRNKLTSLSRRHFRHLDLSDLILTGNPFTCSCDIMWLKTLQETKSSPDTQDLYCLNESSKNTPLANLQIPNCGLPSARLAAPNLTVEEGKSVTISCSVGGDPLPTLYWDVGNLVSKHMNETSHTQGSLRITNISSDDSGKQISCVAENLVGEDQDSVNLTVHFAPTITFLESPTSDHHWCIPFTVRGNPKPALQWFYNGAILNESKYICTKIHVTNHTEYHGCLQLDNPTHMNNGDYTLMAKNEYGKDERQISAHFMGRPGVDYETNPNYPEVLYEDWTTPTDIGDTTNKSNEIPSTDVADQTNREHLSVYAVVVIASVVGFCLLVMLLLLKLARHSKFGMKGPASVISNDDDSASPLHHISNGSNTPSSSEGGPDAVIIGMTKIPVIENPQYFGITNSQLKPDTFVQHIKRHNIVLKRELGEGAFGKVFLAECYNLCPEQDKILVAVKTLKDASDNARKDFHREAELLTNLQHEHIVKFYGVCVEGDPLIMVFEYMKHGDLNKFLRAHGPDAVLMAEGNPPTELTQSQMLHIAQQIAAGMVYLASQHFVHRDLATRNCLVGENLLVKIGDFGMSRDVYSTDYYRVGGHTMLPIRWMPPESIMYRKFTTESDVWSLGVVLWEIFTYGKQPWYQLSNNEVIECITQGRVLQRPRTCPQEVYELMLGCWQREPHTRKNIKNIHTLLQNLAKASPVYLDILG
The target of the next experiment is human TrkB (human) (UniProt Q16620). The experiment can be described thus: cell-based or functional assay.
Chain of UniProt Q16620 (Q16620 32-822): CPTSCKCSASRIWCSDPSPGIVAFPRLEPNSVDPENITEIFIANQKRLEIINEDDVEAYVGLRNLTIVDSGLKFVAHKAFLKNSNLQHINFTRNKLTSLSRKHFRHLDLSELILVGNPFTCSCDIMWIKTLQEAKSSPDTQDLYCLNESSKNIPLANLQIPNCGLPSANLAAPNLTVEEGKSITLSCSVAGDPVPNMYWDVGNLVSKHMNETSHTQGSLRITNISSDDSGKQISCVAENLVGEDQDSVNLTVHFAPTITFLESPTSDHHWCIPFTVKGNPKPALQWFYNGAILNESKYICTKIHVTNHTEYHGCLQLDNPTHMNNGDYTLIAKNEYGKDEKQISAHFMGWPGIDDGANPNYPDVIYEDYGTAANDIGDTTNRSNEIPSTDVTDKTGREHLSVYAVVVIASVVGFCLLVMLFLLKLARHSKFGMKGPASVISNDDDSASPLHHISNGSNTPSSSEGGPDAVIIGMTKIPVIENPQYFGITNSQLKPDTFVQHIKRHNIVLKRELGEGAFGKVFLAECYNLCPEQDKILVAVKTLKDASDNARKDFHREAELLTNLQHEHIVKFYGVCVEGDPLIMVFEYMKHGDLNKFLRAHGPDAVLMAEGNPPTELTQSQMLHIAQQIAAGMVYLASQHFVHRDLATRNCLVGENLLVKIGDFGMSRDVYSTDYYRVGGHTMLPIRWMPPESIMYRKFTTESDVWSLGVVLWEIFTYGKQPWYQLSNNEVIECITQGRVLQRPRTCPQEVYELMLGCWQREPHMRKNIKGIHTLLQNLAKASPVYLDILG

Data on 3 molecules can be found in patent US20200190201A1.

Chain of UniProt Q16288 (Q16288 32-839): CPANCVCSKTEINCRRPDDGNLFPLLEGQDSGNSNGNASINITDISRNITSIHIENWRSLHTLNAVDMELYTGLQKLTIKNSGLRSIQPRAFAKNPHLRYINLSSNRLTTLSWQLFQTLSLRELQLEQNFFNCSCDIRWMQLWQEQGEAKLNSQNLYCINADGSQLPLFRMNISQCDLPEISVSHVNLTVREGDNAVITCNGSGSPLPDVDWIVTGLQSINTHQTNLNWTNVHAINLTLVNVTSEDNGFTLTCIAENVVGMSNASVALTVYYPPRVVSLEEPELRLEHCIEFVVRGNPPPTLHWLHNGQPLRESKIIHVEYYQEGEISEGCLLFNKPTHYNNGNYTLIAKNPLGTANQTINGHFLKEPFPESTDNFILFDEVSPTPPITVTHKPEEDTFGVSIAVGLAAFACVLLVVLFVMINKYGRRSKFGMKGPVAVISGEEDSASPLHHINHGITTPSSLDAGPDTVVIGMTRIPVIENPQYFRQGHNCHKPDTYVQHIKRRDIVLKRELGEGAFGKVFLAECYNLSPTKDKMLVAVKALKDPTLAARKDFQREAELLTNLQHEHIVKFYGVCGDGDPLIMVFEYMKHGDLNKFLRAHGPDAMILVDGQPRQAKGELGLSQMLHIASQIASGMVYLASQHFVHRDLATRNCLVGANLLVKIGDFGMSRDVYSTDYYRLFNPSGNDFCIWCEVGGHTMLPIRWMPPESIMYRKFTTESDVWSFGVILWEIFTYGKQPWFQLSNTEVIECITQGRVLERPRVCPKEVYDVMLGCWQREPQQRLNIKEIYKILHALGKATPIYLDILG

With “control mIgG (irrelevant mouse IgG, isotype-matched controls) (antibody)”, the mean channel fluorescence (mean channel fluorescence) in experiment [1] was determined as 10.

B1: neurotrophin-3 (NT-3) (ligand)
chain: YAEHKSHRGEYSVCDSESLWVTDKSSAIDIRGHQVTVLGEIKTGNSPVKQYFYETRCKEARPVKNGCRGIDDKHWNSQCKTSQTYVRALTSENNKLVGWRWIRIDTSCVCALSRKIGRT
B1 returned an EC50 of p-ERK response in 3T3 cells expressing human TrkC (AlphaLisa) in experiment [2] of 0.3 nM. In experiment [3], this molecule came in with a surviving rat spiral ganglion neurons per well, 4 days in culture of 10 to 20 neurons/well.

B2: brain-derived neurotrophic factor (BDNF) (ligand, UniProt P23560 129-247, looked up)
chain: HSDPARRGELSVCDSISEWVTAADKKTAVDMSGGTVTVLEKVPVSKGQLKQYFYETKCNPMGYTKEGCRGIDKRHWNSQCRTTQSYVRALTMDSKKRIGWRFIRIDTSCVCTLTIKRGR
For the molecule B2, in experiment [4], the rat spiral ganglion neuron survival relative to 1 nM NT-3 (100%) was determined as 92%. Moreover, in the experiment with human TrkB (human), the EC50 of p-ERK response in HEK293 cells expressing human TrkB (AlphaLisa) is 0.3 nM and the Maximal Effect % of p-ERK response in HEK293 cells expressing human TrkB (relative to 10 nM BDNF) amounted to 100%.
